In patent US11492610B2, “Sample multiplexing for single-cell RNA sequencing” (California Institute of Technology, priority 2018, dated 2022):

Tested on: mouse neural stem cells (NSCs)
Assay: 96-plex scRNA-seq perturbation experiment (96-sample growth factor screen)
Type: cell-based
Description: Neural stem cells for 96-sample growth factor screen were cultured according to the following protocol after previously described cell culture plate reached ˜80% confluence: Stock solutions (10×) were prepared in Neural Stem Cell Basal Medium for every factor and at every concentration used: EGF+bFGF at 200 ng/mL, 40 ng/mL, 8 ng/mL, 1.6 ng/mL; BMP4 (Peprotech) at 200 ng/mL, 40 ng/mL, 8 ng/mL, 0 ng/mL; Retinoic Acid (Sigma) at 10 μM, 2 μM, 0 μM; Scriptaid (Selleckchem)/Decitabine (Selleckchem) at 1 μM/5 μM, 0.2 μM/1 μM, 0 μM/0 μM; Heparin at 20 μg/mL+Penicillin-Streptomycin at 10%. 20 μL each of EGF/bFGF, BMP4, Retinoic acid or Scriptaid/Decitabine, and Heparin/Penicillin-Streptomycin were added to each well of a poly-L-ornithine and laminin coated 96-well plate for a total of 80 μL.
NSCs previously plated on 100 mm culture plates until ˜80% confluent were dissociated by incubation in 4 mL of ESGRO Complete Accutase (Millipore) for 2 minutes at 37° C. After incubation, the Accutase and NSCs were transferred to a 15 mL conical tube and centrifuged at room temperature for 2.5 minutes at 200×g. Supernatant was removed and the cell pellet was resuspended in 2 mL Neural Stem Cell Basal Medium. Centrifugation and medium replacement were repeated one more time and cell concentration was counted on the Countess II Automated Cell Counter. The cell suspension was then diluted with additional Neural Stem Cell Basal Medium to a concentration of 18.3 cells/μL. From this stock 120 μL was added to each well of the 96-well plate for a total of ˜2,200 cells/well. Supplemented media for every well in the 96-well plate was replaced every other day during the 5-day incubation.
Before NSC dissociation and fixation, 80 μL of ice-cold methanol was added to each well of twelve 8-well PCR strips on an ice block. After 5 days in culture, all media in the 96-well plate were removed and the cells washed three times with 150 μL of Neural Stem Cell Basal Medium. Any remaining media were removed and replaced with 20 μL of Accutase and incubated at 37° C. for 2 minutes with gentle pipetting to help break cell clumps. […]
Cells for the 96-sample perturbation experiment were prepared as described above. […] Sequencing libraries were prepared as described, with sample tag libraries sequenced on two lanes of Illumina MiSeq using MiSeq v3 150 cycle kits (26×98 bp reads), and cDNA libraries pooled and sequenced on Illumina HiSeq 4000 using two HiSeq 3000/4000 SBS 300 cycle kits (2×150 bp reads).
For the 96-sample perturbation experiment, the ScanPy Python package (version 1.0.4) was used to process the filtered genes×cells matrix produced by cellranger. […] The per-cell read counts were regressed out and the data scaled to unit variance. […]

B1: BMP4: bone morphogenic protein 4 (BMP4), Peprotech (protein, UniProt P12644 293-408, looked up)
Bone morphogenetic protein 4: SPKHHSQRARKKNKNCRRHSLYVDFSDVGWNDWIVAPPGYQAFYCHGDCPFPLADHLNSTNHAIVQTLVNSVNSSIPKACCVPTELSAISMLYLDEYDKVVLKNYQEMVVEGCGCR
cell proliferation / phenotype across the perturbation array (Example 2 analysis, FIG. 3E, 5A): high proliferation under low BMP4 conditions | effect on cell populations, PCA of relative cluster abundance × sample matrix (Example 2 analysis, FIG. 5B): graded effect | cell proliferation / phenotype across the perturbation array (Example 5 re-analysis (UMAP), FIG. 24, 27): high proliferation under low BMP4 conditions | effect on cell populations, PCA of relative cluster abundance × sample matrix (Example 5 re-analysis (UMAP), FIG. 24B): graded effect
